Biological target: BDCA-2 (CLEC4C, CD303) on human plasmacytoid dendritic cells (purified pDC or pDC within PBMC) (human) (UniProt Q8WTT0)
Assay: cell-based or functional assay

Chain of BDCA-2 (CLEC4C, CD303) on human plasmacytoid dendritic cells (purified pDC or pDC within PBMC) (human) (Q8WTT0 whole entry): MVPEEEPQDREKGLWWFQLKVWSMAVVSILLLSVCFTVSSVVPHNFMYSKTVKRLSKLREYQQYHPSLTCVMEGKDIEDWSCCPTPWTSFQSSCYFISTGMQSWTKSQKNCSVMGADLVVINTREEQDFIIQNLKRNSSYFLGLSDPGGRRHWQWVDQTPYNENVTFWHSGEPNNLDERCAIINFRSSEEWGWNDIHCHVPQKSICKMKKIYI

B1: anti-BDCA-2 mAb BIIB059 (from patent WO2014093396) (antibody, INN chains, looked up, V domains shown)
VH: DVQLVESGGGLVKPGGSLRLSCAASGFTFSTYTMSWVRQAPGKGLEWVATISPGDSFGYYYPDSVQGRFTISRDNAKNSLYLQMNSLRAEDTAVYYCTRDIYYNYGAWFAYWGQGTLVTVSS
VL: DIQLTQSPSSLSASVGDRVTITCKASQSVDYDGDSYMNWYQQKPGKAPKLLIYAASTLESGVPSRFSGSGSGTDFTLTISSLQPEDFATYYCQQANEDPRTFGQGTKVEIK
B1 gave an IC50, nM; inhibition of IFNα from ODN stimulated healthy donor PBMC of 0.85 nM, an IC50, ng/ml; inhibition of IFNα from ODN stimulated healthy donor PBMC of 128 ng/mL and an IC90, nM; inhibition of IFNα from ODN stimulated healthy donor PBMC of 7.68 nM. For the same binder, the IC90, ng/ml; inhibition of IFNα from ODN stimulated healthy donor PBMC was 1150 ng/mL.

— patent publication US20220162322A1
